# Source: PMC3362863 (Traffic (Copenhagen, Denmark), 2011)
# B1: P2X4-GFP (receptor, UniProt P51577 1-388, looked up)
# chain: MAGCCSVLGSFLFEYDTPRIVLIRSRKVGLMNRAVQLLILAYVIGWVFVWEKGYQETDSVVSSVTTKAKGVAVTNTSQLGFRIWDVADYVIPAQEENSLFIMTNMIVTVNQTQSTCPEIPDKTSICNSDADCTPGSVDTHSSGVATGRCVPFNESVKTCEVAAWCPVENDVGVPTPAFLKAAENFTLLVKNNIWYPKFNFSKRNILPNITTSYLKSCIYNAQTDPFCPIFRLGTIVEDAGHSFQEMAVEGGIMGIQIKWDCNLDRAASLCLPRYSFRRLDTRDLEHNVSPGYNFRFAKYYRDLAGKEQRTLTKAYGIRFDIIVFGKAGKFDIIPTMINVGSGLALLGVATVLCDVIVLYCMKKKYYYRDKKYKYVEDYEQGLSGEMNQ
# B2: CHC-TFE3 fusion protein, Flag- or Myc-tagged (other, human, UniProt Q00610 1-932, looked up)
# chain: MAQILPIRFQEHLQLQNLGINPANIGFSTLTMESDKFICIREKVGEQAQVVIIDMNDPSNPIRRPISADSAIMNPASKVIALKAGKTLQIFNIEMKSKMKAHTMTDDVTFWKWISLNTVALVTDNAVYHWSMEGESQPVKMFDRHSSLAGCQIINYRTDAKQKWLLLTGISAQQNRVVGAMQLYSVDRKVSQPIEGHAASFAQFKMEGNAEESTLFCFAVRGQAGGKLHIIEVGTPPTGNQPFPKKAVDVFFPPEAQNDFPVAMQISEKHDVVFLITKYGYIHLYDLETGTCIYMNRISGETIFVTAPHEATAGIIGVNRKGQVLSVCVEEENIIPYITNVLQNPDLALRMAVRNNLAGAEELFARKFNALFAQGNYSEAAKVAANAPKGILRTPDTIRRFQSVPAQPGQTSPLLQYFGILLDQGQLNKYESLELCRPVLQQGRKQLLEKWLKEDKLECSEELGDLVKSVDPTLALSVYLRANVPNKVIQCFAETGQVQKIVLYAKKVGYTPDWIFLLRNVMRISPDQGQQFAQMLVQDEEPLADITQIVDVFMEYNLIQQCTAFLLDALKNNRPSEGPLQTRLLEMNLMHAPQVADAILGNQMFTHYDRAHIAQLCEKAGLLQRALEHFTDLYDIKRAVVHTHLLNPEWLVNYFGSLSVEDSLECLRAMLSANIRQNLQICVQVASKYHEQLSTQSLIELFESFKSFEGLFYFLGSIVNFSQDPDVHFKYIQAACKTGQIKEVERICRESNCYDPERVKNFLKEAKLTDQLPLIIVCDRFDFVHDLVLYLYRNNLQKYIEIYVQKVNPSRLPVVIGGLLDVDCSEDVIKNLILVVRGQFSTDELVAEVEKRNRLKLLLPWLEARIHEGCEEPATHNALAKIYIDSNNNPERFLRENPYYDSRVVGKYCEKRDPHLACVAYERGQCDLELINLPVSGNLLDVYSSQGVATPAITVSNSCPAELPNIKREISETEAKALLKERQKKDNHNLIERRRRFNINDRIKELGTLIPKSSDPEMRWNKGTILKASVDYIRKLQKEQQRSKDLESRQRSLEQANRSLQLRIQELELQAQIHGLPVPPTPGLLSLATTSASDSLKPEQLDIEEEGRPGAATFHVGGGPAQNAPHQQPPAPPSDALLDLHFPSDHLGDLGDPFHLGLEDILMEEEEGVVGGLSGGALSPLRAASDPLLSSVSPAVSKASSRRSSFSMEEES
# Target: the molecule itself
# Experiment: cross-linking
protein,measurement,value
B1,stoichiometry N,3
B2,stoichiometry N,2
